According to article PMC5716069:
Read-outs that look alike come from different tables or passages of the source.

Key:
Loqs-PD [1] = target: T1, Loqs-PD (Drosophila melanogaster, UniProt Q9VJY9-4 1-359); experiment: fluorescence anisotropy
T1 sequence: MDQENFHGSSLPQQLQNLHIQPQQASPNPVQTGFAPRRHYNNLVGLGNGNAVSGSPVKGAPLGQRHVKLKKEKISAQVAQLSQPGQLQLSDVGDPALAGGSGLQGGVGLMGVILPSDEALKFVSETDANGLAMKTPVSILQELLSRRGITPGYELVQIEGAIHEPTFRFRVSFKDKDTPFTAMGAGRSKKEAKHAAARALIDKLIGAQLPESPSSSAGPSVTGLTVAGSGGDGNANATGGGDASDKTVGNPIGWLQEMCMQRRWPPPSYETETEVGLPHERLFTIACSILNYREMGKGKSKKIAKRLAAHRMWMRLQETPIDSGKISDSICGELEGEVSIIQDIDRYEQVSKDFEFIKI

Loqs dsRBD1 [2] = target: T2, Loqs dsRBD1 (Drosophila melanogaster, UniProt Q9VJY9-4 129-211); experiment: fluorescence anisotropy
T2 sequence: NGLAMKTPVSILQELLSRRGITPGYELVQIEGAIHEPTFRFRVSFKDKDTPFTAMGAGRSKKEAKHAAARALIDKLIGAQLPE

Loqs-PDΔNC [3] = target: T3, Loqs-PDΔNC (Drosophila melanogaster, UniProt Q9VJY9-4 129-322); experiment: fluorescence anisotropy
T3 sequence: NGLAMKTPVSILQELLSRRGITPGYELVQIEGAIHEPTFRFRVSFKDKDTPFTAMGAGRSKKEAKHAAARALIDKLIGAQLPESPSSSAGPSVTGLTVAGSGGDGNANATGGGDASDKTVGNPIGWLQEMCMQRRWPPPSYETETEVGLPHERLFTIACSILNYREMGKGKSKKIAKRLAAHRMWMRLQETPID

Loqs dsRBD2 [4] = target: T4, Loqs dsRBD2 (Drosophila melanogaster, UniProt Q9VJY9-4 245-322); experiment: fluorescence anisotropy
T4 sequence: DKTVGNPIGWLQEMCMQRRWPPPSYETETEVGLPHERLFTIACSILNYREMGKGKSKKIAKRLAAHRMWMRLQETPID

Loqs-PDΔNC [5] = target: T3, Loqs-PDΔNC; experiment: fluorescence anisotropy and EMSA
Loqs dsRBD2 [6] = target: T4, Loqs dsRBD2; experiment: fluorescence anisotropy and EMSA
Loqs dsRBD1 [7] = target: T2, Loqs dsRBD1; experiment: NMR titration
Loqs-PDΔNC [8] = target: T3, Loqs-PDΔNC; experiment: NMR titration
Loqs dsRBD2 [9] = target: T4, Loqs dsRBD2; experiment: NMR titration
Loqs-PDΔNC Δ41 = target: T5, Loqs-PDΔNC Δ41 (Drosophila melanogaster, UniProt Q9VJY9-4 129-322, del209-249); experiment: NMR titration
T5 sequence: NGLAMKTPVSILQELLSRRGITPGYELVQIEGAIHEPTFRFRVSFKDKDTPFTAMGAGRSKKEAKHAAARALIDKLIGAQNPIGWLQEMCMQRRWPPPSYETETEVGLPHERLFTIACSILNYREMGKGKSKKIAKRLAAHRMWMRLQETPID

Loqs-PDΔNC [10] = target: T3, Loqs-PDΔNC; experiment: NMR PRE
Loqs-PDΔNC [11] = target: T3, Loqs-PDΔNC; experiment: NMR PRE; remark: listed apart in the source
Loqs-PDΔNC [12] = target: T3, Loqs-PDΔNC; experiment: NMR
Dcr-2 = Dcr-2 (Drosophila melanogaster, UniProt A1ZAW0 1-1722); experiment: 4-thioU UV cross-linking
Dcr-2;Loqs-PD [13] = target: T6, Dcr-2;Loqs-PD (Drosophila melanogaster;Drosophila …, UniProt A1ZAW0;Q9VJY9-4 1-1722;1-359, |); experiment: 4-thioU UV cross-linking
Loqs-PD [14] = target: T1, Loqs-PD; experiment: 4-thioU UV cross-linking
Loqs-PDΔNC [15] = target: T3, Loqs-PDΔNC; experiment: 4-thioU UV cross-linking
Loqs dsRBD1 [16] = target: T2, Loqs dsRBD1; experiment: 4-thioU UV cross-linking
Loqs dsRBD2 [17] = target: T4, Loqs dsRBD2; experiment: 4-thioU UV cross-linking
Dcr-2;Loqs-PD [18] = target: T6, Dcr-2;Loqs-PD; experiment: 4-thioU UV cross-linking; remark: listed apart in the source

T6 sequence (A1ZAW0 whole entry, one chain of several): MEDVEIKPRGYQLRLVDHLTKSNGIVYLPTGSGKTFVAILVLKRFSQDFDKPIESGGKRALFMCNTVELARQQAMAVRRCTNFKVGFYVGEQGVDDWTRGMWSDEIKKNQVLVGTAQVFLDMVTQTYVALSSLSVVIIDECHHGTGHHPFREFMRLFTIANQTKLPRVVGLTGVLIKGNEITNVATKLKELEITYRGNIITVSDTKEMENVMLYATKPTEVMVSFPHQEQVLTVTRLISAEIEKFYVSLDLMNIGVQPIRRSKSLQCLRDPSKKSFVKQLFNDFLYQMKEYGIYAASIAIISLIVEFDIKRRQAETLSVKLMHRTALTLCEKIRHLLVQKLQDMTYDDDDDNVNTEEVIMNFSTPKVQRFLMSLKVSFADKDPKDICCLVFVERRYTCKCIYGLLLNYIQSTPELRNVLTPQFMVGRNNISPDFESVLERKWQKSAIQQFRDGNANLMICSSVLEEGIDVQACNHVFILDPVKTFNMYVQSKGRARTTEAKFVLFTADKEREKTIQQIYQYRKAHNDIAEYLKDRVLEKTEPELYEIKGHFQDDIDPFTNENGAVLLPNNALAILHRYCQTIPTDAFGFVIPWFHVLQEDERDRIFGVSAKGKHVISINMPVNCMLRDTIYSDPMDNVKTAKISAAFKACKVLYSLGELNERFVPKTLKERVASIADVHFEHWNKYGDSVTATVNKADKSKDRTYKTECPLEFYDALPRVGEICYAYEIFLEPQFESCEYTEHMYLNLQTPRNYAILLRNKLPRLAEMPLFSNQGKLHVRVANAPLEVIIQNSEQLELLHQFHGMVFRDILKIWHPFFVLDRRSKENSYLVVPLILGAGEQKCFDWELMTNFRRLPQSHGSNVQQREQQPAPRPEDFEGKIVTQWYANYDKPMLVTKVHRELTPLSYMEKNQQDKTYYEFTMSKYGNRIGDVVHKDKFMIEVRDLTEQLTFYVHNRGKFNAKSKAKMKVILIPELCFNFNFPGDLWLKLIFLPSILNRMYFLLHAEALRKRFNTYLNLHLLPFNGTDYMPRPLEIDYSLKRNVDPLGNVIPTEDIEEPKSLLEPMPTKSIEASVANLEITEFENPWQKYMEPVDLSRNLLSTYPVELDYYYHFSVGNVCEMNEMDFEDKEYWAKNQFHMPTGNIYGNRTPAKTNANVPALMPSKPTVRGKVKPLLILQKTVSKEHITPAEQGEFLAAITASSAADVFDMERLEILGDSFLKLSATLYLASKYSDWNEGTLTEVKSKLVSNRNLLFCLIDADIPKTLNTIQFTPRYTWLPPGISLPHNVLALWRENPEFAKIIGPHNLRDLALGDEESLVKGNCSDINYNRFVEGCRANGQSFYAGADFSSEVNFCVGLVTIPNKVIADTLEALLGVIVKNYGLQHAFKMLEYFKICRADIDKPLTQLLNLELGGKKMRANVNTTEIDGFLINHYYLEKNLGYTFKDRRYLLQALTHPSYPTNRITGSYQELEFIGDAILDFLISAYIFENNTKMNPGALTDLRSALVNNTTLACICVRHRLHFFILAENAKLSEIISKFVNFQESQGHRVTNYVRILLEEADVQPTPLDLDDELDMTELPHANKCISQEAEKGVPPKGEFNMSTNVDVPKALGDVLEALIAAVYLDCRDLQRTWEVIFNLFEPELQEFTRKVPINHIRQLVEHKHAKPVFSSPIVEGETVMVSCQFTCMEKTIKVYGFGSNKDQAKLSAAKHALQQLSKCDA
Dcr-2, sequence (A1ZAW0 whole entry): as the sequence (A1ZAW0 whole entry, one chain of several) above

B1: ban-siRNA, FITC (dsRNA)
RNA 1: UGAGAUCAUUUUGAAAGCUGAUU
RNA 2: UCAGCUUUCAAAAUGAUCUCACU
modifications: 5'-phosphate
Loqs-PD [1]
  Kd: 50 ± 6 nM
Loqs dsRBD1 [2]
  Kd: 228 ± 27 nM
Loqs-PDΔNC [3]
  Kd: 82 ± 21 nM
Loqs dsRBD2 [4]
  Kd: 278 ± 24 nM

B2: bantam miRNA/miRNA*, FITC (dsRNA)
RNA 1: UGAGAUCAUUUUGAAAGCUGAUU
RNA 2: UCGGUUUUCGAUUUGGUUUGACU
modifications: 5'-phosphate
Loqs-PD [1]
  Kd: 118 ± 17 nM
Loqs dsRBD1 [2]
  Kd: 233 ± 17 nM
Loqs-PDΔNC [3]
  Kd: 97 ± 21 nM
Loqs dsRBD2 [4]
  Kd: 241 ± 75 nM

B3: 14 nt RNA, FITC (dsRNA)
RNA 1: UGAGAUCAUUUUGA
RNA 2: UCAAAAUGAUCUCAUU
modifications: 5'-phosphate
Loqs-PD [1]
  Kd: 118 ± 15 nM
Loqs dsRBD1 [2]
  Kd: 365 ± 62 nM
Loqs-PDΔNC [3]
  Kd: 128 ± 41 nM
Loqs dsRBD2 [4]
  Kd: 334 ± 8 nM

B4: nicked siRNA, FITC (dsRNA)
RNA 1: UGAGAUCAUUUUGAAAGCUGAUU
RNA 2: UCAGCUUUCAA
RNA 3: AAUGAUCUCACU
modifications: nick between 11 and 12 of S1 strand; 5'-phosphate
Loqs-PDΔNC [5]
  binding result: binds
Loqs dsRBD2 [6]
  binding result: binds

B5: ban-siRNA, unlabeled (dsRNA)
RNA 1: UCAGCUUUCAAAAUGAUCUCACU
RNA 2: UGAGAUCAUUUUGAAAGCUGAUU
Loqs dsRBD1 [7]
  binding result: binds
Loqs-PDΔNC [8]
  binding result: binds
Loqs dsRBD2 [9]
  binding result: binds
Loqs-PDΔNC Δ41
  binding result: binds

B6: ban-siRNA GG variant, TEMPO (dsRNA)
RNA 1: GGAGCUUUCAAAAUGAUCUCCUU
RNA 2: GGAGAUCAUUUUGAAAGCUCCUU
modifications: TEMPO at either 5' end (G1 or G24)
Loqs-PDΔNC [10]
  binding result: binds

B7: highly asymmetric siRNA, TEMPO (dsRNA)
RNA 1: GUAACUUUCAAAAUGAGCGCCUU
RNA 2: GGCGCUCAUUUUGAAAGUUACUU
modifications: TEMPO at either 5' end
Loqs-PDΔNC [11]
  binding result: binds

B8: ban-siRNA GG variant, isotope-labeled (dsRNA)
RNA 1: GGAGCUUUCAAAAUGAUCUCCUU
RNA 2: GGAGAUCAUUUUGAAAGCUCCUU
Loqs-PDΔNC [12]
  binding result: binds

B9: ban-siRNA, 4-thioU series (dsRNA)
RNA 1: UCAGCUUUCAAAAUGAUCUCACU
RNA 2: UGAGAUCAUUUUGAAAGCUGAUU
modifications: one 4-thiouridine per duplex, position varied; 5'-phosphate
Dcr-2
  binding result: binds
Dcr-2;Loqs-PD [13]
  binding result: binds
Loqs-PD [14]
  binding result: binds
Loqs-PDΔNC [15]
  binding result: binds
Loqs dsRBD1 [16]
  binding result: binds
Loqs dsRBD2 [17]
  binding result: binds

B10: 35 nt dsRNA, FITC (dsRNA)
RNA 1: GAUUCAUACAAGUGAGAUCAUUUUGAAAGCUGAUU
RNA 2: UCAGCUUUCAAAAUGAUCUCACUUGUAUGAAUCAA
modifications: 5'-phosphate
Loqs-PD [1]
  Kd: 62 ± 5 nM
Loqs dsRBD1 [2]
  Kd: 191 ± 29 nM
Loqs-PDΔNC [3]
  Kd: 86 ± 18 nM
Loqs dsRBD2 [4]
  Kd: 229 ± 48 nM

B11: nicked siRNA, passenger nicked, 4-thioU (dsRNA)
RNA 1: UGAGAUCAUUUUGAAAGCUGAUU
RNA 2: UCAGCUUUCAA
RNA 3: AAUGAUCUCACU
modifications: nick 11/12; 4-thiouridine in intact strand
Dcr-2;Loqs-PD [18]
  binding result: binds
